Results on two molecules are retold here after patent CN114409766A (AGRICULTURAL UNIV IN CHINA, dated 2022).

This assay concerns the target T1, EBV病毒颗粒 (gp350 on EB virus particles) (Epstein-Barr virus, UniProt P03200 1-907).
T1 construct: also called EBV颗粒; UV-EBV病毒颗粒
T1 sequence (looked up): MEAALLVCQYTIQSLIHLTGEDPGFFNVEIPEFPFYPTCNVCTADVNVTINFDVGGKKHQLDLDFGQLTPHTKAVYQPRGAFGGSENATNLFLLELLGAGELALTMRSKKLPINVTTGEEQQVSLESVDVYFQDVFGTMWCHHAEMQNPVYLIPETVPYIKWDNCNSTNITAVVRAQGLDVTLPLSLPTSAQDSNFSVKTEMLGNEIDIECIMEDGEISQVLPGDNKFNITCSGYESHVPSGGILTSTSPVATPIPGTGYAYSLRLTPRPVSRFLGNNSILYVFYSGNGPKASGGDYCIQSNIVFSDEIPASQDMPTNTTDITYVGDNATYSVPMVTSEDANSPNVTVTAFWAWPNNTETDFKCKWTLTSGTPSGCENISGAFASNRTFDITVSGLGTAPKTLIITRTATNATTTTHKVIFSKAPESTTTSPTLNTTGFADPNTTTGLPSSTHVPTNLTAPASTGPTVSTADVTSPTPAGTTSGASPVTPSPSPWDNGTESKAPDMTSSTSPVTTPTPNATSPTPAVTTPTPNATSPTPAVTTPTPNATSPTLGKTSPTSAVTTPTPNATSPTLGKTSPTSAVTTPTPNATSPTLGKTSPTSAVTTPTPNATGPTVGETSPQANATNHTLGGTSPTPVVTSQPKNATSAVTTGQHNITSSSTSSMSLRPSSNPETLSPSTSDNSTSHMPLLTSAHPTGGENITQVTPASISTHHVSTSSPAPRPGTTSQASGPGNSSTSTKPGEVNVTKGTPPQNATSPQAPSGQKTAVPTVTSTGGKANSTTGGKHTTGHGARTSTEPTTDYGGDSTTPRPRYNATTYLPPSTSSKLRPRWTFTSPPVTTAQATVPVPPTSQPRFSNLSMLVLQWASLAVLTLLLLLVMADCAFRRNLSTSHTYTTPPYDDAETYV
The assay is described as follows: ELISA, EBV particles coated, titrated binder. (ELISA stands for enzyme-linked immunosorbent assay.)

B1: 单克隆抗体R9 (scFv fused to FLAG tag or hFc) (scFv)
scFv: QSVKESEGGLFKPTDTLTLTCTVSGSSLRSYGVSWVRQAPGTGLEWIGAIGRSGSAYYASWAKSRSTITRNTNDNTVTLKMTSLTAADTATYFCARAYFGNSIGPFNIWGPGTLVTVSSGGGGSGGGGSGGGGSAIVLTQTPSSVSAPVGGTVTINCQASQSVSNLLAWYQQKPGQPPKLLIYGASNLESGVPSRFRGSGSGTQFTLTISGVKAEDVAAYYCHQHSSFPLTFGAGTKVEIK
On to B1, for which the binding result was “binds”.

B2: 单克隆抗体R1 (scFv fused to FLAG tag or hFc) (scFv)
scFv: QSVKESEGGLFKPTDTLTLTCTVSGFSLSSNAISWVRQAPGNGLEYIGYISYRGNTYYASWARSRSTITRNTNENTVTLKMTRLTAADTATYFCARIRSYSRANGHADGFDPWGPGTLVTVSSGGGGSGGGGSGGGGSDVVMTQTPSSVSAAVGGTVTINCQASESISNLLAWYQQKPGQPPKLLIYGASNLESGVPSRFRGSGSGTQFTLTISGVKDEDVATYYCQSGRYAAGATFGAGTNVEIK
notes: also called R1抗体; 单抗R1
As for B2, the binding result was “binds”.
